Paper doi:10.64898/2025.12.18.695067

Biological target: DNAJB1 (recombinant, as used in SPR) (human) (UniProt P25685)
Test: SPR

Sequence of UniProt P25685 (P25685 whole entry): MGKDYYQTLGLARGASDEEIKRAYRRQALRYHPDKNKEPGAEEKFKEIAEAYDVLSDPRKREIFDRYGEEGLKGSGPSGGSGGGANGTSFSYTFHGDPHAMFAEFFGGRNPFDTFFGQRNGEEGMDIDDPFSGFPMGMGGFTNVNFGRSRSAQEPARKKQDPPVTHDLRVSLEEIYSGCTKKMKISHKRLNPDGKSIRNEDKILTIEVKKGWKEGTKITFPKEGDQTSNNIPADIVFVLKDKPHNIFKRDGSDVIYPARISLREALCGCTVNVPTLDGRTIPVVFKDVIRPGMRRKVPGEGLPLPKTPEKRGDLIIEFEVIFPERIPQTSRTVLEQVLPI

Kd	Substance
1830 nM	K27-linked diubiquitin (chemically synthesized; tag not told for the experiment) (from UniProt P0CG48 1-76; P0CG48 1-76)
3420 nM	K27-linked tetraubiquitin (synthetic) (from UniProt P0CG48 1-76)
